Source: patent US11110182B2, “Multifunctional RNA nanoparticles and methods for treating cancer and therapeutic resistant cancer” (University of Cincinnati, priority 2016, dated 2021)

Test system: BT474 cells
Assay: Transwell migration and invasion assay, BT474 cells
Format: cell-based, human
Conditions: for invasion ability: Matrigel-coated transwell
Description: FIG. 3A) BT474 cells were incubated with 10 μg/mL control and pRNA-HER2apt-siMED1 nanoparticles for 48 h, and MED1 mRNA level was determined by real-time PCR. FIG. 3B) BT474 cells were incubated directly with (as indicated by -) or transfected with indicated pRNAs using lipofectamine 2000. At 48 h post treatment, MED1 protein levels were determined by western blotting. FIG. 3C) BT474 cells were treated with 10 μg/mL pRNA nanoparticles for 48 h and assayed for cell viability by MTT assay. FIG. 3D) Cells were treated as above and seeded for migration, and FIG. 3E) invasion transwell assays. Scale bar: 50 μm. FIG. 3F) After pRNA treatment for 48 h, the mRNA levels of ERα target genes TFF-1, FIG. 3G) c-Myc, and FIG. 3H) cyclin D1 in BT474 cells were determined by real-time PCR.
FIG. 4A) BT474 cells were treated with pRNA nanoparticles in combination with vehicle or 1 μM 4-hydroxy-tamoxifen (4-OHT) as indicated for 48 h, and assayed for cell viability by MTT assay. FIG. 4B) Cells were treated as above and the migration and FIG. 4C) invasion capabilities were examined. FIG. 4D) Cells were treated as above and assayed for in vitro mammosphere formation. FIG. 4E) The number of mammospheres was counted, and FIG. 4F) the mammosphere size was calculated. Scale bar: 10 μm.
FIG. 11. […] BT474 cells were treated with pRNA nanoparticles alone or together with 1 μM 4-hydroxy-tamoxifen (4-OHT) for 48 h. Cell migration and invasion were then examined using transwell assay. Photos were recorded using an Olympus SZX12 microscope. Scale bar: 100 μm.
Migration and metastasis assay. The 8-μm-pore-size polycarbonate membrane, which separates the two chambers of a 6.5-mm Transwell (Costar), was coated with or without 1:8 DMEM-diluted Matrigel (Corning). Transwell assay was performed as previously described.^57 Briefly, BT474 cells were treated with pRNAs alone or together with 4-hydroxy-tamoxifen (4-OHT) for 48 h and starved with serum-free DMEM containing 0.2% BSA overnight. On the next day, cells were collected and 2×10^5 cells were seeded to the upper chamber of Transwell. The lower chamber was filled with 600 μL DMEM medium containing 10% FBS. After incubation at 37° C. for 24 h, cells on the membranes were fixed and stained with 0.1% crystal violet in 20% ethanol solution. Cells at top side of membranes were removed completely, and cells at the bottom side were examined with an Olympus SZX12 microscope and counted. • Mammosphere culture and breast cancer stem cell analyses. BT474 cells were treated with pRNAs for 48 h. Then, cells were suspended in DMEM/F12 medium supplemented with 1×B27 (Thermo Fisher), 20 ng/mL bFGF and 20 ng/mL EGF (R&D), and added into 24-well ultralow attachment plates. After treatment with or without 1 μM 4-OHT for 7 days, mammosphere formation was recorded using an Axiovert S100 TV inverted microscope (Zeiss). Xenograft tumor tissues were cut into small pieces and digested with trypsin and collagenase at 37° C. for 1 h, and tumor cells were collected and rinsed with pre-cold PBS. All cells were stained with FITC-conjugated anti-CD44 antibody and PE-conjugated anti-CD24 antibody (BD Pharmingen) in the dark on ice for 30 min. After resuspension with 0.5 mL PBS buffer, CD44^+/CD24^−/low cell population was analyzed by flow cytometry. • Orthotopic xenograft breast tumor mouse model, in vivo imaging and anti-tumor therapy. […]

[1] = BT474, in combination with 1 μM 4-hydroxy-tamoxifen, 48 h

| Molecule | invasion ability (BT474, 48 h treatment) | migration ability (BT474, 48 h treatment, transwell without Matrigel) | effect on tamoxifen inhibition of invasion [1] | effect on tamoxifen inhibition of migration [1] |
| --- | --- | --- | --- | --- |
| pRNA-HER2apt-siMED1: 3-WJ pRNA nanoparticle bearing a HER2-targeting RNA aptamer and two different MED1 siRNAs; strands p1 SEQ ID NO: 3, p2 SEQ ID NO: 4 (nucleic acid, 2'-F modification; third strand may lack entry; pRNA-HER2apt-siMED1, p1; pRNA-HER2apt-siMED1, p2) chain 1: GGACAGUGAAAGUGAGUCAAAGGAUCAAUCAUGGCCAAAGAUGUUACUUUGAGAGCCUU chain 2: GGCUCUCAAAGUAACAUCUAAGGCCAUGUGUAUGUGGGGGGAGGACGAUGCGGUCUGCUGUGCUUGAUAUGCCCCAGACGACUCGCCCCCCACAUACUUUGUUGAUCCAAUGACUCACUUUCACUGUCCUU | specifically suppressed | specifically suppressed | significantly enhanced the inhibitory effects of tamoxifen | significantly enhanced the inhibitory effects of tamoxifen |
| pRNA-HER2apt^mut-siMED1: control pRNA nanoparticle with mutant HER2 aptamer; strands p1 SEQ ID NO: 5, p2 SEQ ID NO: 6 (nucleic acid, pRNA-HER2apt(mut)-siMED1, p1; pRNA-HER2apt(mut)-siMED1, p2) chain 1: GGACAGUGAAAGUGAGUCAAAGGAUCAAUCAUGGCCAAAGAUGUUACUUUGAGAGCCUU chain 2: GGCUCUCAAAGUAACAUCUAAGGCCAUGUGUAUGUGGGAUGAGGAGUAUGAAGAUACCUGUACUUGAUAUGCCCCAGACGACAUUCCCCCCACAUACUUUGUUGAUCCAAUGACUCACUUUCACUGUCCUU | not |  |  |  |
